Assay in all cases: Octet BLI; Fab 200 nM
On the technique in general: Biolayer interferometry detects binding as a change in optical thickness at a sensor tip.

The target of assay [1] is T1, extracellular domain of human BCMA (human, UniProt Q02223 1-54).
T1 construct: amine-linked to Octet AR2G tips; also called hsBCMA; BCMA (human)
T1 sequence: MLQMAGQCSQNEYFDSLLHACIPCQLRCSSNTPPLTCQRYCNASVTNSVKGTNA

For assay [2], the target named is T2, extracellular domain of rhesus monkey BCMA (rhesus monkey, UniProt F7FFA0 1-53).
T2 construct: extracellular domain; also called RhBCMA
T2 sequence (F7FFA0 entry or part of it): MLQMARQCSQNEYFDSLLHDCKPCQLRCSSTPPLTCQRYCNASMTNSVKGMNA

Assay [3] concerns the target T1, extracellular domain of human BCMA. This is another data set of the same source.
For assay [4], the target named is T2, extracellular domain of rhesus monkey …. This is another data set of the same source.

Numbering of substitutions follows the chain as printed. Read-outs that look alike come from different tables or passages of the source.

Broadly, the Kd is the concentration at which binding is half-saturated.

B1: AB200-(2Vk30)_R2-VH-v10 (Fab, V domains shown)
VH: QVQLVQSGAEVKKPGSSVKVSCKASGGTYSNYWIHWVRQAPGQGLEWMGATYRSHSDTNYNQKYKSRVTITADKSTSTAYMELSSLRSEDTAVYYCARGAIYHGYDVIENWGQGTLVTVSS
VL: DIQMTQSPSSLSASVGDRVTITCRASQSISSYLNWYQQKPGKAPKLLIYATSNLQIGVPSRFSGSGSGTDFTLTISSLQPEDFATYYCQQYRRIPWTFGQGTKLEIKR
Turning to B1, the results for the Kd in assay [1] and in assay [2] were 85.8 nM and 330 nM, respectively.

B2: AB200-(2Vk30)_R2-VH-v39 (Fab, V domains shown)
VH: B1 VH with Y29F, S30T, S54I, N59Y, N61A, Q62E, Y64F, Y102F, E109D
VL: B1 VL
For B2, the Kd was determined as 3 nM in assay [1] and 15.4 nM in assay [2].

B3: AB200-(2Vk30)_R2-VH-v16 (Fab, V domains shown)
VH: B1 VH with T28S, Y29F, A50G, Y64F, Y102F, E109D
VL: B1 VL
Turning to B3, the Kd in assay [1] worked out at 74.6 nM; in assay [2] it was 178 nM.

B4: AB200-(2Vk35)_R2-VH-v11 (Fab, V domains shown)
VH: B1 VH with Q62E, Y64F, I101V, E109D
VL: B1 VL with L33I, I56S
As to B4, the Kd was determined as 47 nM in assay [3] and 130 nM in assay [4].

B5: AB200-(2Vk35)_R2-VH-v48 (Fab, V domains shown)
VH: B1 VH with A50G, S54I, D57T, N59Y, Y64F, Y105F, E109D
VL: B1 VL with L33I, I56S
Regarding B5, the Kd in assay [3] amounted to 36.6 nM; in assay [4] it was 52 nM.

B6: AB200-(2Vk30)_R2-VH-v13 (Fab, V domains shown)
VH: B1 VH with T28S, Y29F, A50G, N59Y, N61A, Y64F
VL: B1 VL
Consider B6, for which the Kd in assay [1] stood at 44.7 nM; in assay [2], 144 nM.

B7: AB200-(2Vk30)_R2-VH-v67 (Fab, V domains shown)
VH: B1 VH with Y29F, S54I, D57T, N59Y, Q62E, Y64F, I101V, E109D
VL: B1 VL
On to B7, for which the figures for the dissociation constant Kd in assay [1] and in assay [2] were 16.8 nM and 35.7 nM, respectively.

B8: AB200-(2Vk30)_R2-VH-v31 (Fab, V domains shown)
VH: B1 VH with Y29F, H55Q, Y64F, I101V, E109D
VL: B1 VL
As to B8, the Kd worked out at 12.9 nM in assay [1] and 38.4 nM in assay [2].

B9: AB200-(2Vk30)_R2-VH-v45 (Fab, V domains shown)
VH: B1 VH with S54I, D57T, Y64F, Y102F, E109D
VL: B1 VL
On to B9, for which the Kd in assay [1] is 720 nM; in assay [2] it was 3080 nM.

B10: AB200-(2Vk35)_R2-VH-v38 (Fab, V domains shown)
VH: B1 VH with Y29F, H55Q, N59Y, Q62E, Y64F, Y105F, E109D
VL: B1 VL with L33I, I56S
Consider B10, for which the Kd in assay [3] is 1.89 nM; in assay [4], 9.59 nM.

B11: AB200-(2Vk30)_R2-VH-v51 (Fab, V domains shown)
VH: B1 VH with T28S, Y29F, A50G, S54I, H55Q, N59Y, Y64F
VL: B1 VL
Regarding B11, the Kd in assay [1] was determined as 20.3 nM; in assay [2] it was 68.9 nM.

B12: AB200-(2Vk30)_R2-VH-v65 (Fab, V domains shown)
VH: B1 VH with Y29F, S54I, H55Q, D57T, N59Y, Y64F, Y105F, E109D
VL: B1 VL
As for B12, the Kd is 27.3 nM in assay [1] and 46.8 nM in assay [2].

B13: AB200-(2Vk35)_R2-VH-v49 (Fab, V domains shown)
VH: B1 VH with S54I, H55Q, D57T, N59Y, Y64F
VL: B1 VL with L33I, I56S
For B13, the Kd in assay [3] amounted to 63.2 nM; in assay [4] it was 126 nM.

B14: AB200-(2Vk35)_R2-VH-v26 (Fab, V domains shown)
VH: B1 VH with Y29F, D57T, N59Y, N61A, Y64F, Y102F, E109D
VL: B1 VL with L33I, I56S
B14: the Kd in assay [3] was determined as 20.9 nM; in assay [4], 40.7 nM.

B15: AB200-(2Vk35)_R2-VH-v15 (Fab, V domains shown)
VH: B1 VH with T28S, Y29F, H55Q, D57T, N59Y, Y64F, Y102F, E109D
VL: B1 VL with L33I, I56S
For B15, the Kd in assay [3] turned out to be 25.5 nM; in assay [4] it was 48.6 nM.

B16: AB200-(2Vk30)_R2-VH-v19 (Fab, V domains shown)
VH: B1 VH with Y29F, A50G, D57T, N59Y, Y64F, Y105F, E109D
VL: B1 VL
B16: the results for the Kd in assay [1] and in assay [2] were 14.6 nM and 25.4 nM, respectively.

B17: AB200-(2Vk30)_R2-VH-v43 (Fab, V domains shown)
VH: B1 VH with Y29F, S30T, A50G, S54I, N59Y, N61A, Y64F, Y105F, E109D
VL: B1 VL
For the molecule B17, the results for the Kd in assay [1] and in assay [2] were 6.82 nM and 25.8 nM, respectively.

B18: AB200-(2Vk35)_R2-VH-v9 (Fab, V domains shown)
VH: B1 VH with H55Q, Y64F, Y105F, E109D
VL: B1 VL with L33I, I56S
On to B18, for which the Kd worked out at 49.3 nM in assay [3] and 103 nM in assay [4].

B19: AB200-(2Vk35)_R2-VH-v8 (Fab, V domains shown)
VH: B1 VH with A50G, H55Q, N59Y, Y64F, Y105F, E109D
VL: B1 VL with L33I, I56S
For the molecule B19, the Kd in assay [3] was 12.1 nM; in assay [4] it was 38 nM.

B20: AB200-(2Vk35)_R2-VH-v36 (Fab, V domains shown)
VH: B1 VH with Y29F, N59Y, N61A, Q62E, Y64F, Y102F, E109D
VL: B1 VL with L33I, I56S
On to B20, for which the Kd in assay [3] came out at 3.15 nM; in assay [4] it was 14.8 nM.

B21: AB200-(2Vk30)_R2-VH-v59 (Fab, V domains shown)
VH: B1 VH with Y29F, A50G, S54I, N59Y, N61A, Y64F
VL: B1 VL
Consider B21, for which the Kd in assay [1] was found to be 37.8 nM; in assay [2] it was 121 nM.

B22: AB200-(2Vk30)_R2-VH-v40 (Fab, V domains shown)
VH: B1 VH with Y29F, S30T, S54I, D57T, N59Y, N61A, Y64F, Y105F, E109D
VL: B1 VL
Consider B22, for which the values for the Kd in assay [1] and in assay [2] were 15.5 nM and 32.5 nM, respectively.

B23: AB200-(2Vk35)_R2-VH-v32 (Fab, V domains shown)
VH: B1 VH with Y29F, Y102F, E109D
VL: B1 VL with L33I, I56S
On to B23, for which the figures for the Kd in assay [3] and in assay [4] were 29.1 nM and 67.3 nM, respectively.

B24: AB200-(2Vk30)_R2-VH-v23 (Fab, V domains shown)
VH: B1 VH with Y29F, A50G, N59Y, Y102F, E109D
VL: B1 VL
With B24, the Kd was found to be 6.89 nM in assay [1] and 25.9 nM in assay [2].

B25: AB200-(2Vk30)_R2-VH-v74 (Fab, V domains shown)
VH: B1 VH with Y29F, S54I, N59Y, N61A, Q62E, Y64F, Y105F, E109D
VL: B1 VL
Turning to B25, the Kd amounted to 2.17 nM in assay [1] and 9.83 nM in assay [2].

B26: AB200-(2Vk35)_R2-VH-v46 (Fab, V domains shown)
VH: B1 VH with S54I, H55Q, Y64F
VL: B1 VL with L33I, I56S
Turning to B26, the Kd in assay [3] came out at 103 nM; in assay [4], 287 nM.

B27: AB200-(2Vk30)_R2-VH-v30 (Fab, V domains shown)
VH: B1 VH with Y29F, N61A, Y64F
VL: B1 VL
Turning to B27, the figures for the Kd in assay [1] and in assay [2] were 50.4 nM and 141 nM, respectively.

B28: AB200-(2Vk30)_R2-VH-v71 (Fab, V domains shown)
VH: B1 VH with Y29F, S54I, Q62E, Y64F, Y102F, E109D
VL: B1 VL
For B28, the Kd was found to be 29.7 nM in assay [1] and 64.1 nM in assay [2].

For the origin of these results see patent US20240327535A1 (EISAI R AND D MANAGEMENT, published 2024).
